Assay results: patent publication US20210155712A1

Experiments:
[1] = biological target: human HER3 expressed on cells (human) (UniProt P21860); assay: flow cytometry, HEK293T HER3 O/E cells, 10 ug antibody, FITC channel
[2] = biological target: human HER3:human NRG1 complex (human) (UniProt Q02297); assay: BLI (Octet QK384), antibody on AHC sensors, human HER3-NRG1 complex (1:1 molar ratio) in solution, presence of human NRG1
[3] = biological target: recombinant human HER3 (human) (UniProt P21860); assay: BLI (Octet QK384), antibody on AHC sensors, His-tagged human HER3 in solution, absence of human NRG1

Chain of anti-HER3 antibody clone LJM716 (VH): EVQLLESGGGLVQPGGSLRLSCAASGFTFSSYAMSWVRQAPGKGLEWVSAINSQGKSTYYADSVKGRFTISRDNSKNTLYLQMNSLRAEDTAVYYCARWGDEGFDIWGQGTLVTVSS
Chain of anti-HER3 antibody clone LJM716 (VL): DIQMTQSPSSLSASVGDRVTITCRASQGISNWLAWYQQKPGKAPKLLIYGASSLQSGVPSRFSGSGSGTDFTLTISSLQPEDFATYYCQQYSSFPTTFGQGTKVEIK

anti-HER3 antibody clone LJM716 gave a % Parent (HER3 positive) [1] of 74.4%, a Kd [2] of 16.8 nM and a Kd [3] of under 0.001 nM.
